Experimental data published in patent publication US20170283834A1, “Processes for Producing A Fermentation Product Using A Fermenting Organism” (Novozymes A/S, priority 2014, published 2017).

Key:
[1] = system: host proteases; experiment: Cleavage during cultivation, SDS-PAGE of culture supernatants; parameters: species or system Aspergillus niger
Description: Aspergillus transformant of the variant and the wild type Penicillium oxalicum glucoamylase were cultivated in 6-well MT plates containing 4× diluted YP-2% maltose medium supplemented with 10 mM sodium acetate buffer, pH4.5, at 32° C. for 1 week.
The culture supernatants were loaded on SDS-PAGE.

[2] = target: T1, aorsin (Aspergillus oryzae, UniProt Q8NK92); experiment: PE001 protease stability, SDS-PAGE after protease treatment; type: biochemical
T1 sequence (Q8NK92 216-652): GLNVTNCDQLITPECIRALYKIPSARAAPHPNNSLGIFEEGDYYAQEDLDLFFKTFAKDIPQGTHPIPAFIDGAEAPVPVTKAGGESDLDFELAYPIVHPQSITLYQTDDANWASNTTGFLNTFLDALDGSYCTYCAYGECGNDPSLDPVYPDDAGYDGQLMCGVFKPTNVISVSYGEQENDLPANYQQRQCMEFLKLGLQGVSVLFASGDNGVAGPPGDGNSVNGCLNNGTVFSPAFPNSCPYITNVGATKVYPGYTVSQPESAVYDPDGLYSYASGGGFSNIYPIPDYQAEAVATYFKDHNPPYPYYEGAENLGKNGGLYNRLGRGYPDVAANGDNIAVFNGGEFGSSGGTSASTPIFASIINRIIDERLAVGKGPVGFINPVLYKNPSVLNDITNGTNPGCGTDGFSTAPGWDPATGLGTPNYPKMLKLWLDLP
Description: 40 μl enzyme solutions (1 mg/ml) in 50 mM sodium acetate buffer, pH 4.5, were mixed with 1/10 volume of 1 mg/ml protease solutions such as aspergillopepsin I described in Biochem J. 1975 April; 147(1):45-53, or the commercially available product from Sigma and aorsin described in Biochemical journal [0264-6021] Ichishima yr: 2003 vol:371 iss:Pt 2 pg:541 and incubated at 4 or 32° C. overnight. As a control experiment, H2O was added to the sample instead of proteases. The samples were loaded on SDS-PAGE to see if the glucoamylases are cleaved by proteases.

[3] = culture supernatant, 32° C., 1 week

B1: Penicillium oxalicum glucoamylase: wild type Penicillium oxalicum glucoamylase disclosed in SEQ ID NO: 9 (protein, listed as Penicillium oxalicum)
chain: MRLTLLSGVAGVLCAGQLTAARPDPKGGNLTPFIHKEGERSLQGILDNLGGRGKKTPGTAAGLFIASPNTENPNYYYTWTRDSALTAKCLIDLFEDSRAKFPIDRKYLETGIRDYVSSQAILQSVSNPSGTLKDGSGLGEPKFEIDLNPFSGAWGRPQRDGPALRATAMITYANYLISHGQKSDVSQVMWPIIANDLAYVGQYWNNTGFDLWEEVDGSSFFTIAVQHRALVEGSQLAKKLGKSCDACDSQPPQILCFLQSFWNGKYITSNINTQASRSGIDLDSVLGSIHTFDPEAACDDATFQPCSARALANHKVYVDSFRSIYKINAGLAEGSAANVGRYPEDVYQGGNPWYLATLGASELLYDALYQWDRLGKLEVSETSLSFFKDFDATVKIGSYSRNSKTYKKLTQSIKSYADGFIQLVQQYTPSNGSLAEQYDRNTAAPLSANDLTWSFASFLTATQRRDAVVPPSWGAKSANKVPTTCSASPVVGTYKAPTATFSSKTKCVPAKDIVPITFYLIENTYYGENVFMSGNITALGNWDAKKGFPLTANLYTQDQNLWFASVEFIPAGTPFEYKYYKVEPNGDITWEKGPNRVFVAPTGCPVQPHSNDVWQF
[1]
  cleavage by host proteases during fermentation: cleaved by host proteases during fermentation
[1]; [3]
  cleaved glucoamylase (ca. 60 kDa): 10%
  intact glucoamylase (ca. 70 kDa): 90%
[2]; incubation 4° C. overnight
  cleaved glucoamylase (ca. 60 kDa): 60%
  intact glucoamylase (ca. 70 kDa): 40%
[2]; incubation 32° C. overnight
  cleaved glucoamylase (ca. 60 kDa): 90%
  intact glucoamylase (ca. 70 kDa): 10%
